One experiment deals with CD3. Kind of experiment: method not stated.
The target in the next experiment is T1, CD3ε (UniProt P07766 23-126, limits assumed).
T1 construct: The antigen in the Biacore assay is called only 'CD3ε'; also called CD3ε antigen
Kind of experiment: SPR, Biacore T200, CD3ε immobilized on CM5, Fab injected. The method, then: The binding affinity of selected Fab variants for CD3ε was measured by SPR with a BIACORE® T200 instrument. Briefly, a series S sensor chip CM5 was activated with 1-ethyl-3-(3-dimethylaminopropyl) carbodiimide (EDC) and N-hydroxysuccinimide (NHS) reagents according to the supplier's instructions, and 5 μg/ml CD3ε in 10 mM sodium acetate (pH4.0) was coupled to achieve 100 response units (RU), except for FC1 (which served as a reference). Unreacted groups were then blocked with 1 M ethanolamine. Next, three-fold serial dilutions of Fab in HBS-P buffer (0.01 M HEPES pH 7.4, 0.15M NaCl, 0.005% surfactant P20) from low (0.02 nM) to high (20 nM) were injected (flow rate: 30 μl/min). The binding responses on Fab were corrected by subtracting of RU from a blank flow cell. The sensorgram was recorded and subject to reference and buffer subtraction before evaluating by BIACORE® T200 Evaluation Software (Version 2.0). Association rates (kₐ) and dissociation rates (kd) were calculated using a simple one-to-one Langmuir binding model. The equilibrium dissociation constant (KD) was calculated as the ratio of kd/kₐ. The binding affinity kinetics were determined for a high-affinity anti-CD3 Fab, 38E4v11, having the heavy chain and light chain variable domain sequences set forth in FIG. 1.
In general terms: SPR reads the build-up and loss of mass on a sensor chip optically.

By Kd is commonly meant a measure of binding affinity in units of concentration. A lower Kd goes with tighter binding.

Sequence of CD3 (P07766 22-207): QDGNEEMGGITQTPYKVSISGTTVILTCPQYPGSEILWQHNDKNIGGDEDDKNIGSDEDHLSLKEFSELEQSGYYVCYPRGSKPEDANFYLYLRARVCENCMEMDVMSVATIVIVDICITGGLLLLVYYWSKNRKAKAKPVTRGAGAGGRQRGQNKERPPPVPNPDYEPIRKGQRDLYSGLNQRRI
T1 sequence (P07766 23-126 limits assumed): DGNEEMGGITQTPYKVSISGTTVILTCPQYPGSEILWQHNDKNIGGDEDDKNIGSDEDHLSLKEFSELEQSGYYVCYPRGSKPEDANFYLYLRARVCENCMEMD

B1: Ly6G6D (40G5c) TDB (bispecific antibody, part only; not given: anti-Ly6G6D arm and constant regions, V domains shown, not shown: another chain or arm of the molecule; a dimerising Fc or GST; small tags and cut ends)
VH: QVQLQQSGPELVKPGASVKISCKASGYTFTNYYIHWVKQRPGQGLEWIGWIYPGDGNTKYNEKFKGKATLTADTSSSTAYMQLSSLTSEDSAVYYCARDSYSNYYFDYWGQGTTLTVSS
VL: DIVMTQSPSSLAVSAGEKVTMSCKSSQSLLNSRTRKNYLAWYQQKPGQSPKLLIYWASTRESGVPDRFTGSGSGTDFTLTISSVQAEDLAVYYCTQSFILRTFGGGTKLEIK
As for B1, the Kd with CD3 worked out at 51 nM.

B2: anti-CD3 Fab 38E4v11 (Fab, V domains shown)
VH: EVQLVQSGAEVKKPGASVKVSCKASGFTFTSYYIHWVRQAPGQGLEWIGWIYPENDNTKYNEKFKDRVTITADTSTSTAYLELSSLRSEDTAVYYCARDGYSRYYFDYWGQGTLVTVSS
VL: DIVMTQSPDSLAVSLGERATINCKSSQSLLNSRTRKNYLAWYQQKPGQSPKLLIYWTSTRKSGVPDRFSGSGSGTDFTLTISSLQAEDVAVYYCTQSFILRTFGQGTKVEIK
notes: Tested as a Fab from a mammalian Fab expression construct with a Flag tag (293T cells, purified on an anti-Flag column)
With B2, the “fold increase in binding affinity relative to parent 38E4v1” value with CD3ε is over 10 fold.

Source of the values: US20210244815A1 (Genentech, published 2021).
